Where two headings read alike, the source gives them in different places.
B1: His-MLK3 (Mixed Lineage Kinase 3) (enzyme, human, UniProt Q16584 1-847, looked up)
chain: MEPLKSLFLKSPLGSWNGSGSGGGGGGGGGRPEGSPKAAGYANPVWTALFDYEPSGQDELALRKGDRVEVLSRDAAISGDEGWWAGQVGGQVGIFPSNYVSRGGGPPPCEVASFQELRLEEVIGIGGFGKVYRGSWRGELVAVKAARQDPDEDISVTAESVRQEARLFAMLAHPNIIALKAVCLEEPNLCLVMEYAAGGPLSRALAGRRVPPHVLVNWAVQIARGMHYLHCEALVPVIHRDLKSNNILLLQPIESDDMEHKTLKITDFGLAREWHKTTQMSAAGTYAWMAPEVIKASTFSKGSDVWSFGVLLWELLTGEVPYRGIDCLAVAYGVAVNKLTLPIPSTCPEPFAQLMADCWAQDPHRRPDFASILQQLEALEAQVLREMPRDSFHSMQEGWKREIQGLFDELRAKEKELLSREEELTRAAREQRSQAEQLRRREHLLAQWELEVFERELTLLLQQVDRERPHVRRRRGTFKRSKLRARDGGERISMPLDFKHRITVQASPGLDRRRNVFEVGPGDSPTFPRFRAIQLEPAEPGQAWGRQSPRRLEDSSNGERRACWAWGPSSPKPGEAQNGRRRSRMDEATWYLDSDDSSPLGSPSTPPALNGNPPRPSLEPEEPKRPVPAERGSSSGTPKLIQRALLRGTALLASLGLGRDLQPPGGPGRERGESPTTPPTPTPAPCPTEPPPSPLICFSLKTPDSPPTPAPLLLDLGIPVGQRSAKSPRREEEPRGGTVSPPPGTSRSAPGTPGTPRSPPLGLISRPRPSPLRSRIDPWSFVSAGPRPSPLPSPQPAPRRAPWTLFPDSDPFWDSPPANPFQGGPQDCRAQTKDMGAQAPWVPEAGP
B2: FLAG-CHIP (carboxy-terminus of Hsc70-interacting protein) (enzyme, human, UniProt Q9UNE7 1-303, looked up)
chain: MKGKEEKEGGARLGAGGGSPEKSPSAQELKEQGNRLFVGRKYPEAAACYGRAITRNPLVAVYYTNRALCYLKMQQHEQALADCRRALELDGQSVKAHFFLGQCQLEMESYDEAIANLQRAYSLAKEQRLNFGDDIPSALRIAKKKRWNSIEERRIHQESELHSYLSRLIAAERERELEECQRNHEGDEDDSHVRAQQACIEAKHDKYMADMDELFSQVDEKRKKRDIPDYLCGKISFELMREPCITPSGITYDRKDIEEHLQRVGHFDPVTRSPLTQEQLIPNLAMKEVIDAFISENGWVEDY

Legend:
[1] = target: T1, GST-MLK4β (Mixed Lineage Kinase 4β) (human, UniProt Q5TCX8-1 1-1036); test: pull-down
[2] = target: T1, GST-MLK4β (Mixed Lineage Kinase 4β); test: pull-down; remark: listed apart in the source

T1 sequence (Q5TCX8 whole entry): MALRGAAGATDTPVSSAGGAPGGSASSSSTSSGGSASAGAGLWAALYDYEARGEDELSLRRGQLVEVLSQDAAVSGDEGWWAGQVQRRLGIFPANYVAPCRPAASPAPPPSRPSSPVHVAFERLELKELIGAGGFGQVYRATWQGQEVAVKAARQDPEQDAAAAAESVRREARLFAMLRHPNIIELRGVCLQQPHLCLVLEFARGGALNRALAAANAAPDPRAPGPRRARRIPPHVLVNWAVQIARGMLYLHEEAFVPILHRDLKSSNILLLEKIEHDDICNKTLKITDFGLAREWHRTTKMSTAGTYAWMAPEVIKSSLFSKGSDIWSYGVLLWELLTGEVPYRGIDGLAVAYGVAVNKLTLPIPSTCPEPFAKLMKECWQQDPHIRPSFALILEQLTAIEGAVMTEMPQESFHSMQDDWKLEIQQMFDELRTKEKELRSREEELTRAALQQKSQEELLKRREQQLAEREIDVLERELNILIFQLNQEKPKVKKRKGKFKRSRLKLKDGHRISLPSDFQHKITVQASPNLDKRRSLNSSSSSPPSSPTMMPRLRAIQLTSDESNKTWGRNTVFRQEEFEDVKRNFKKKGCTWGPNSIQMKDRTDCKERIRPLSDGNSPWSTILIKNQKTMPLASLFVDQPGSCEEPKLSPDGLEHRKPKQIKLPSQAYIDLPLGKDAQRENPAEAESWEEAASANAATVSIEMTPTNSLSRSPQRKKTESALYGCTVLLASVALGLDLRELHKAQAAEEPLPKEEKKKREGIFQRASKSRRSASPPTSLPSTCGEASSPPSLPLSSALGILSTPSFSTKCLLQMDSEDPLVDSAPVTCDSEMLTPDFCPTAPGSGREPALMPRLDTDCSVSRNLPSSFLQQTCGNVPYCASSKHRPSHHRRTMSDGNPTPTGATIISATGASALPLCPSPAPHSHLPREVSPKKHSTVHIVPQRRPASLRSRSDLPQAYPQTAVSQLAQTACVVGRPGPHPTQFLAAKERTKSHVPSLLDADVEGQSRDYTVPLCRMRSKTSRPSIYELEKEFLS

Row | Binder | binding result [1] | binding result [2]
1 | B1 | binds | 
2 | B2 |  | binds

From article PMC5592140 (Cellular signalling, 2017)
